Among the data in patent US20230192818A1 are IC50 and Kd values, retold here.

Experiment [1] addresses Delta spike trimer (SARS-CoV-2), P0DTC2. The conditions noted are these: remark: other sources report otherwise.
Experiment [2] deals with Antibody 178-09_His B.1.1.7 (27080) (SARS-CoV-2), P0DTC2. Nature of the experiment: SPR (Carterra). The conditions noted are these: remark: other sources report otherwise.

B1: 3-31 (Fc fusion)
chain: EVQLVESGGGLVQPGGSLRLSCAASGSTFSINAMGWFRQAPGKEREFVAGITSSGGYTNYADSVKGRFTISADNSKNTAYLQMNSLKPEDTAVYYCAADGVPEYSDYASGPVWGQGTLVTVSS
As a reminder, the IC50 is the point on the concentration scale where inhibition reaches its midpoint. A lower IC50 goes with higher potency. A word on the Kd: it is the constant that tells how readily two partners part at equilibrium. Lower therefore signals a tighter complex. As to B1, the IC50 in experiment [1] turned out to be 3 nM. Further, the Kd in experiment [2] came out at 16.1 nM.
